Substitutions are numbered along the chain they refer to.

We go through two molecules from article PMC10508174 (Cell reports, 2023).

One assay concerns the target DDX39B (residues 44-428) (human, UniProt Q13838 44-428). Put plainly: crystal structure.
The target in the next assay is T1, SARNP (residues 1-210) (human, UniProt P82979 1-210).
T1 sequence (looked up): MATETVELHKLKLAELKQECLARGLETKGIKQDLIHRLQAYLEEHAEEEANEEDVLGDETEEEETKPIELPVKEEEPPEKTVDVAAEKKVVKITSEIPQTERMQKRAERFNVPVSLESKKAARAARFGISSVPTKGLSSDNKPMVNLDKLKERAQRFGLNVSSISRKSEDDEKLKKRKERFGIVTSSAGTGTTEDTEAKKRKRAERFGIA
Description: MST.

Assay [1] deals with T2, SARNP-mut2 (R153A/F157A/R177A/F181A/R203A/F207A) (human, UniProt P82979 1-210, R153A | F157A | R177A | F181A | R203A | F207A).
T2 sequence (looked up): T1 sequence (looked up) with R153A, F157A, R177A, F181A, R203A, F207A
Put plainly: MST.

B1: Tho1 (residues 123-178) (domain or fragment, S. cerevisiae, UniProt P40040 123-178, looked up)
chain: EEIKAKALDLLNKKLHRANKFGQDQADIDSLQRQINRVEKFGVDLNSKLAEELGLV
B1: the binding result in the assay with DDX39B (residues 44-428) is “binds”.

B2: DDX39B-CTD (residues 259-428) (domain or fragment, human, UniProt Q13838 259-428, looked up)
chain: LHGLQQYYVKLKDNEKNRKLFDLLDVLEFNQVVIFVKSVQRCIALAQLLVEQNFPAIAIHRGMPQEERLSRYQQFKDFQRRILVATNLFGRGMDIERVNIAFNYDMPEDSDTYLHRVARAGRFGTKGLAITFVSDENDAKILNDVQDRFEVNISELPDEIDISSYIEQTR
What is called EC50 is the concentration at which the effect is half-maximal. Low values mean higher potency in that assay, high ones lower potency in that assay. Consider B2, for which the EC50 amounted to 1300 nM in the assay with SARNP (residues 1-210) and 3000 nM in assay [1].
